Some results are limits rather than exact numbers.

One assay has as its target HLA-A*30:02. The assay is described as follows: IEDB peptide-MHC binding, purified MHC/competitive/radioactivity; filed as Kd, often an IC50 or EC50 that approximates it; ≥ and ≤ were set here for values at or beyond the usual limits of such assays.
In another assay the target is HLA-A*23:01. The assay is described as above.
A further assay concerns the target HLA-A*26:01. Described as above.
The next assay has as its target HLA-A*01:01. Described as above.
The next assay addresses HLA-A*24:02. The assay is described as above.
For a further assay, the target named is HLA-A*29:02. The assay is described as above.
Assay [1] concerns the target HLA-A*02:01. Nature of the assay: IEDB peptide-MHC binding, purified MHC/competitive/fluorescence; ≥ and ≤ were set here for values at or beyond the usual limits of such assays.
Assay [2] addresses HLA-A*02:01. Nature of the assay: IEDB peptide-MHC binding, purified MHC/competitive/fluorescence; filed as Kd, often an IC50 or EC50 that approximates it; ≥ and ≤ were set here for values at or beyond the usual limits of such assays.
Another assay addresses HLA-A*69:01. Nature of the assay: IEDB peptide-MHC binding, purified MHC/direct/fluorescence; filed as Kd, often an IC50 or EC50 that approximates it; ≥ and ≤ were set here for values at or beyond the usual limits of such assays.
For assay [3], the target named is HLA-A*02:01. Described as above.
Where [4] appears, read: source organism: SARS coronavirus Tor2.
The mark [5] stands for this setting: source organism: Zaire ebolavirus.
[6] abbreviates: source organism: Mammarenavirus mopeiaense.
The mark [7] stands for this setting: source organism: Vaccinia virus WR.
The mark [8] stands for this setting: source organism: Mammarenavirus guanaritoense.
Where [9] appears, read: source organism: Vaccinia virus Copenhagen.
Setting [10] is: source organism: Mammarenavirus whitewaterense.
Where [11] appears, read: source organism: Dengue virus 4 Philippines/H241/1956.
The mark [12] stands for this setting: source organism: Dengue virus 4 Dominica/814669/1981.
[13] abbreviates: source organism: Sudan ebolavirus.
[14] abbreviates: source organism: Mammarenavirus choriomeningitidis.
Setting [15] is: source organism: Mammarenavirus brazilense.
[16] abbreviates: source organism: Vibrio vulnificus YJ016.
Where [17] appears, read: source organism: Mammarenavirus juninense.
[18] abbreviates: source organism: Dengue virus 3 Sri Lanka/1266/2000.
The mark [19] stands for this setting: source organism: Aromatoleum aromaticum.
The mark [20] stands for this setting: source organism: Dengue virus 2 Jamaica/1409/1983.
Setting [21] is: source organism: Dengue virus 1 Brazil/97-11/1997.

HFAIGLALY: the equilibrium dissociation constant (Kd) was 0.0132 µM with HLA-A*30:02 (setting [4]); 11.5 µM with HLA-A*23:01 (setting [4]); 0.24 µM with HLA-A*26:01 (setting [4]); not below 119 µM in the assay with HLA-A*01:01 (setting [4]); 11.1 µM in the assay with HLA-A*24:02 (setting [4]); 0.00471 µM with HLA-A*29:02 (setting [4]).
In the case of HHQDTGEES, the half-inhibitory concentration (IC50) in the assay with HLA-A*02:01 [1] (setting [5]) is not below 223 µM.
On to IKIPTHRHI, for which the Kd with HLA-A*30:02 (setting [6]) was not below 76.9 µM; with HLA-A*23:01 (setting [6]) it was not below 24.8 µM; with HLA-A*26:01 (setting [6]), not below 77.9 µM; with HLA-A*01:01 (setting [6]), 16.6 µM; with HLA-A*24:02 (setting [6]), not below 57.1 µM; in the assay with HLA-A*29:02 (setting [6]), not below 78.9 µM.
With ILFPDDVQEL, the dissociation constant (Kd) in the assay with HLA-A*02:01 [2] (setting [7]) stood at 0.0011 µM.
Regarding IRHLFGNYI, the Kd is not below 24.1 µM with HLA-A*30:02 (setting [8]); not below 22.1 µM in the assay with HLA-A*23:01 (setting [8]); not below 77.9 µM in the assay with HLA-A*26:01 (setting [8]); not below 22.2 µM with HLA-A*01:01 (setting [8]); not below 43.7 µM with HLA-A*24:02 (setting [8]); 0.571 µM with HLA-A*29:02 (setting [8]).
Turning to KLAGGVAVL, the IC50 with HLA-A*02:01 [1] (source organism: Porphyromonas gingivalis) was determined as 0.12 µM.
Regarding KLTDSLSSQ, the half-maximal inhibitory concentration (IC50) with HLA-A*02:01 [1] (setting [9]) was found to be 44.6 µM.
The sequence KVDTTHVSKV registered a dissociation constant Kd with HLA-A*02:01 [2] (source organism: Myxoma virus) of 0.0423 µM.
The sequence LEELLPAVS returned a concentration for half-maximal inhibition (IC50) with HLA-A*02:01 [1] (setting [5]) not below 141 µM.
Consider LFADINGKL, for which the dissociation constant Kd with HLA-A*30:02 (setting [4]) was 4.34 µM; in the assay with HLA-A*23:01 (setting [4]), 1.3 µM; with HLA-A*26:01 (setting [4]) it was not below 41.7 µM; with HLA-A*01:01 (setting [4]), not below 78.1 µM; in the assay with HLA-A*24:02 (setting [4]), 0.722 µM; with HLA-A*29:02 (setting [4]), 0.47 µM.
In turn, LIGIEILNT yielded a concentration for half-maximal inhibition (IC50) with HLA-A*02:01 [1] (setting [7]) not below 147 µM.
With LQFIVFLLL, the Kd with HLA-A*23:01 (setting [10]) was 11.3 µM; with HLA-A*24:02 (setting [10]), not below 77.5 µM; with HLA-A*29:02 (setting [10]) it was 4.67 µM.
For the sequence LRIPTHRHI, the Kd is not below 76.9 µM with HLA-A*30:02 (setting [10]); not below 71.5 µM in the assay with HLA-A*23:01 (setting [10]); not below 77.9 µM with HLA-A*26:01 (setting [10]); not below 25.7 µM with HLA-A*01:01 (setting [10]); not below 77.5 µM in the assay with HLA-A*24:02 (setting [10]); not below 33.7 µM with HLA-A*29:02 (setting [10]).
For the sequence LSSTRVPNY, the dissociation constant Kd in the assay with HLA-A*30:02 (setting [11]) stood at 0.194 µM; with HLA-A*01:01 (setting [11]), 2.04 µM.
Turning to MFGGVSWMI, the dissociation constant (Kd) in the assay with HLA-A*23:01 (setting [12]) amounted to 0.0418 µM; with HLA-A*24:02 (setting [12]), 0.0783 µM.
For the sequence MYEMHRESLL, the dissociation constant (Kd) with HLA-A*23:01 (setting [8]) was 0.87 µM; in the assay with HLA-A*24:02 (setting [8]), 3.17 µM; in the assay with HLA-A*29:02 (setting [8]), 9.88 µM.
Consider NFLEVEDYGF, for which the dissociation constant Kd in the assay with HLA-A*23:01 (setting [11]) was 0.0547 µM; in the assay with HLA-A*24:02 (setting [11]), not below 31.7 µM.
NLEGSGVST: the half-inhibitory concentration (IC50) in the assay with HLA-A*02:01 [1] (setting [13]) is 67.6 µM.
In the assay with HLA-A*02:01 [1] (setting [5]), NNNTHHQDT yielded an IC50 not below 253 µM.
As for PDLKTIHNIL, the values for the Kd with HLA-A*30:02 (setting [14]), with HLA-A*26:01 (setting [14]) and in the assay with HLA-A*01:01 (setting [14]) were 10.3 µM, not below 69.7 µM and not below 70.4 µM, respectively.
The sequence QIGDIIIAV displayed a half-maximal inhibitory concentration (IC50) with HLA-A*02:01 [1] (source organism: Variola virus) of 0.293 µM.
On to QLLEAVYGN, for which the IC50 with HLA-A*02:01 [1] (setting [9]) came to 21.6 µM.
QVFLKMRRIF: the Kd with HLA-A*23:01 (setting [10]) came to 0.401 µM; with HLA-A*24:02 (setting [10]), 12.3 µM; with HLA-A*29:02 (setting [10]), 9.08 µM.
RILGPDCCI displayed an IC50 with HLA-A*02:01 [1] (setting [13]) of 64 µM.
As for RLKGVTCRLF, the Kd came to 0.0983 µM with HLA-A*23:01 (setting [15]), 0.719 µM with HLA-A*24:02 (setting [15]) and 0.395 µM with HLA-A*29:02 (setting [15]).
Take RQLQREGLV: the Kd was not below 20 µM in the assay with HLA-A*69:01 (setting [16]) and not below 5 µM with HLA-A*02:01 [3] (setting [16]).
In the case of RQMATTTNPL, in the assay with HLA-A*02:01 [2] (source organism: Influenza A virus (A/parakeet/Chiba/1/97(H9N2))), the dissociation constant (Kd) was 0.393 µM.
With RTLLGLILFV, in the assay with HLA-A*02:01 [2] (source organism: Variola virus), the equilibrium dissociation constant (Kd) came out at 1.27 µM.
For the sequence RWTQSLRRGL, the results for the Kd with HLA-A*23:01 (setting [17]), with HLA-A*24:02 (setting [17]) and with HLA-A*29:02 (setting [17]) were 5.3 µM, not below 70.3 µM and 1.28 µM, respectively.
In turn, SEELSFTVV registered an IC50 with HLA-A*02:01 [1] (setting [5]) not below 145 µM.
Regarding SFYSDPKRFF, the figures for the Kd in the assay with HLA-A*23:01 (setting [8]), with HLA-A*24:02 (setting [8]) and with HLA-A*29:02 (setting [8]) were 0.226 µM, 0.74 µM and 0.124 µM, respectively.
Turning to SISKSNAKC, the IC50 with HLA-A*02:01 [1] (setting [9]) came out at 35.8 µM.
Take SVMATEEPT: the 50% inhibitory concentration (IC50) in the assay with HLA-A*02:01 [1] (setting [13]) is not below 115 µM.
TIGEWAFWE registered an IC50 with HLA-A*02:01 [1] (setting [5]) not below 245 µM.
As for TSETFSMGLL, the equilibrium dissociation constant (Kd) with HLA-A*01:01 (setting [11]) was 0.242 µM.
TSQVPKLLL displayed a concentration for half-maximal inhibition (IC50) with HLA-A*02:01 [1] (source organism: Variola virus) of 47.4 µM.
Regarding TYQLWTALV, the dissociation constant (Kd) in the assay with HLA-A*23:01 (setting [18]) is 0.0583 µM; with HLA-A*24:02 (setting [18]), 0.0483 µM.
As for VLEGFEGDL, the Kd with HLA-A*69:01 (setting [19]) is not below 20 µM; with HLA-A*02:01 [3] (setting [19]), 17 µM.
Turning to VSLTCSNTIF, the equilibrium dissociation constant (Kd) with HLA-A*01:01 (setting [18]) was 7.76 µM.
Turning to VSQHNYRPGY, the Kd was determined as 0.385 µM in the assay with HLA-A*30:02 (setting [20]) and 6.79 µM in the assay with HLA-A*01:01 (setting [20]).
As for WHLGKLELDF, the Kd with HLA-A*23:01 (setting [21]) turned out to be 0.296 µM.
On to WTEAKMLLD, for which the equilibrium dissociation constant (Kd) in the assay with HLA-A*01:01 (setting [21]) was 0.943 µM.
For YTYPDSLEE, the IC50 in the assay with HLA-A*02:01 [1] (setting [5]) is not below 264 µM.

The values above are taken from the Immune Epitope Database (IEDB).
